Test results as given in US20190367620A1 (Merck KGaA, published 2019).
Substitutions are numbered along the chain they refer to.

Legend:
Test in all cases: SPR; free energy change relative to wild-type D2
[1] = biological target: T1, FGFR1 D2 point mutant S45A (human, UniProt P11362 22-254)
T1 chain: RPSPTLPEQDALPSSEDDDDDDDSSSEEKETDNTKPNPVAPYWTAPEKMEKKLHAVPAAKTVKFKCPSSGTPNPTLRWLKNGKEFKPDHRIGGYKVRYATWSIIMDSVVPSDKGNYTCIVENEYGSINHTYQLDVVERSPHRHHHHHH
Experimental: (§1) Binding affinities of anti-FGFR1 antibodies to FGFR1 were measured by Surface Plasmon Resonance (SPR) using a GE Healthcare BIAcore 4000 instrument as follows. Goat anti-human Fc antibody (Jackson ImmunoResearch Laboratories #109-005-098) was first immobilized on BIAcore carboxymethylated dextran CM5 chip using direct coupling to free amino groups following the procedure described by the manufacturer. Antibodies were then captured on the CM5 biosensor chip to achieve approximately 200 response units (RU). Binding measurements were performed using the running HBS-EP+ buffer. A 2-fold dilution series of His-tagged FGFR1 proteins were injected at a flow rate of 30 μl/min at 25° C. Association rates (kₒₙ, per mol/s) and dissociation rates (koff, per s) were calculated using a simple 1:1 Langmuir binding model (Biacore 4000 Evaluation Software). The equilibrium dissociation constant (KD, mol) was calculated as the ratio of koff/kₒₙ.
(§2) To obtain a finer, residue-level mapping of the epitope and to complement the HD exchange data, molecular modelling and manual inspection of the crystal structure of FGFR1 [(Beenken et al. 2012); PDB record 3OJV] was used to select solvent exposed residues within and around the epitope identified by HD exchange. The selected residues were mutated either to alanine (large to small) or to glycine if the selected residue was alanine. In total 35 point mutants were designed, expressed and purified in HEK cells, and tested for binding to mAb #A08 using surface plasmon resonance as described in Example 1.8. The affinity of the antibody for wild-type and each mutant was determined and used to calculate the contribution of each epitope residue to the binding energy.
(§3) Variant were compared to wild-type D2. The change in the Gibbs free energy of binding of mutant relative to the wild-type D2 construct (ΔΔGₘᵤₜ) was derived from the ratio of the wild-type and mutant KD.

[2] = biological target: T2, FGFR1 D2 point mutant H54A (human, UniProt P11362 22-254)
T2 chain: T1 chain with A45S, H54A
Experimental: as §1, §2, §3

[3] = biological target: T3, FGFR1 D2 point mutant A55G (human, UniProt P11362 22-254)
T3 chain: T1 chain with A45S, A55G
Experimental: as §1, §2, §3

[4] = biological target: T4, FGFR1 D2 point mutant V56A (human, UniProt P11362 22-254)
T4 chain: T1 chain with A45S, V56A
Experimental: as §1, §2, §3

[5] = biological target: T5, FGFR1 D2 point mutant K65A (human, UniProt P11362 22-254)
T5 chain: T1 chain with A45S, K65A
Experimental: as §1, §2, §3

[6] = biological target: T6, FGFR1 D2 point mutant K86A (human, UniProt P11362 22-254)
T6 chain: T1 chain with A45S, K86A
Experimental: as §1, §2, §3

[7] = biological target: T7, FGFR1 D2 point mutant P87A (human, UniProt P11362 22-254)
T7 chain: T1 chain with A45S, P87A
Experimental: as §1, §2, §3

[8] = biological target: T8, FGFR1 D2 point mutant V96A (human, UniProt P11362 22-254)
T8 chain: T1 chain with A45S, V96A
Experimental: as §1, §2, §3

[9] = biological target: T9, FGFR1 D2 point mutant Y98A (human, UniProt P11362 22-254)
T9 chain: T1 chain with A45S, Y98A
Experimental: as §1, §2, §3

[10] = biological target: T10, FGFR1 D2 point mutant I104A (human, UniProt P11362 22-254)
T10 chain: T1 chain with A45S, I104A
Experimental: as §1, §2, §3

- ΔΔGmut [1]: 0.05 kcal/mol
- ΔΔGmut [2]: 0.37 kcal/mol
- ΔΔGmut [3]: 0.07 kcal/mol
- ΔΔGmut [4]: 0.2 kcal/mol
- ΔΔGmut [5]: -0.04 kcal/mol
- ΔΔGmut [6]: -0.06 kcal/mol
- ΔΔGmut [7]: 0.08 kcal/mol
- ΔΔGmut [8]: -0.02 kcal/mol
- ΔΔGmut [9]: -0.04 kcal/mol
- ΔΔGmut [10]: 0.93 kcal/mol
B1: mAb #A08 (antibody, V domains shown)
VH: EVQLQESGPGLVKPSGTLSLTCAVSGGSISSNNWWSWVRQPPGKGLEWIGEIYHSGSTSYNPSLKSRVTISVDKSKNQFSLKLNSVTAADTAVYYCARGTDWFDPWGQGTLVTVSS
VL: QAVLTQPPSVSVAPGQTARITCGGNNIGSESVHWYQQKPGQAPVLVVYDDSDRPSGIPERFSGSNSGNTATLTISRVEAGDEADYYCQVWDSTSDHRVFGGGTKLTVL
notes: Only variable domains are tied to the name mAb #A08 (hit); also called #A08 hit; mAb #08
